Assays:
[1] = target: T1, cynomolgus monkey CD19 on peripheral blood B cells (cynomolgus monkey (Macaca fascicularis), UniProt A0A2K5W8L9 20-557); assay: FACS, cynomolgus PBMC, CD20+ B cells
T1 construct: whole, on cells; also called cynomolgus monkey B cells
T1 sequence: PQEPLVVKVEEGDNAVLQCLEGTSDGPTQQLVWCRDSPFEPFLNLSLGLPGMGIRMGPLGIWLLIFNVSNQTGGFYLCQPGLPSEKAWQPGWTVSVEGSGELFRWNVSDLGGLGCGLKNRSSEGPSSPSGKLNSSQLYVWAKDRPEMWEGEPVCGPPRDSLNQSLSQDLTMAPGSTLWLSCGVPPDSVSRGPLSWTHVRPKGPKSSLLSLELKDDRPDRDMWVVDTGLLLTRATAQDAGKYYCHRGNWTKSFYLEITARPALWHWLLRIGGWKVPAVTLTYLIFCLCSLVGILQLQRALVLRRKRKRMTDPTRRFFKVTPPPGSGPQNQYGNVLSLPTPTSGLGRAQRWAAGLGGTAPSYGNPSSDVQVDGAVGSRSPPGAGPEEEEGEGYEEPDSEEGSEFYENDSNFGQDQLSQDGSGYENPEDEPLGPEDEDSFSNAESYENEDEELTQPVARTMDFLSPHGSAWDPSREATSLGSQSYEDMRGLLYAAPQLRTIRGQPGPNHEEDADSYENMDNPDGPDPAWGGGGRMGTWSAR

[2] = target: T2, monkey CD19 on HEK293T-monkey CD19 cells (monkey); assay: FACS on HEK293T-monkey CD19 cells
T2 construct: whole, on cells
Summary of the method: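 Antibody binding was read as MFI by flow cytometry and EC50 was taken from curve fitting. Before that, cells at 2×10⁶ cells/ml in PBS with 2% (w/w) BSA were exposed to samples for 2 h on ice and washed. Parental HEK293T cells were tested the same way.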

human CD19 on Raji cells = target: T3, human CD19 on Raji cells (human, UniProt P15391 20-556); assay: FACS on Raji cells
T3 construct: whole, on cells
T3 sequence (looked up): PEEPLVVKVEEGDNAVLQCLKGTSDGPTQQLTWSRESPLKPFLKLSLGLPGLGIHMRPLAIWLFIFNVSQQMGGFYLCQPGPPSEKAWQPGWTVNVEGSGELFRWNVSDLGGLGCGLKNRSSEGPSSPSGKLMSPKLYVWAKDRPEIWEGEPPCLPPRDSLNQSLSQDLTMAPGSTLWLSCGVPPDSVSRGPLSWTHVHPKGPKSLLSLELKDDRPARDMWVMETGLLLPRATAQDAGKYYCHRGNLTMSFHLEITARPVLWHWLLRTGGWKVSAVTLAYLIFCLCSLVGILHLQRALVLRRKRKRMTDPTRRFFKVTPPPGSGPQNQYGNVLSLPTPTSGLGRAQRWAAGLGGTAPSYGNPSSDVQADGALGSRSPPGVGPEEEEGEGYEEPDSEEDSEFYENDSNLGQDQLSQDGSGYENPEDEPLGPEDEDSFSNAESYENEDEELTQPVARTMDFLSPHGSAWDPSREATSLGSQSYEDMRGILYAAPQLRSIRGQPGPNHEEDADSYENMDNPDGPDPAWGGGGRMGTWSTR

[3] = target: T4, human CD19 on CHO-K1-human CD19 cells (human, UniProt P15391 20-556); assay: FACS on CHO-K1-human CD19 cells
T4 construct: whole, on cells; also called CHO-K1-human CD19-2C8
T4 sequence (looked up): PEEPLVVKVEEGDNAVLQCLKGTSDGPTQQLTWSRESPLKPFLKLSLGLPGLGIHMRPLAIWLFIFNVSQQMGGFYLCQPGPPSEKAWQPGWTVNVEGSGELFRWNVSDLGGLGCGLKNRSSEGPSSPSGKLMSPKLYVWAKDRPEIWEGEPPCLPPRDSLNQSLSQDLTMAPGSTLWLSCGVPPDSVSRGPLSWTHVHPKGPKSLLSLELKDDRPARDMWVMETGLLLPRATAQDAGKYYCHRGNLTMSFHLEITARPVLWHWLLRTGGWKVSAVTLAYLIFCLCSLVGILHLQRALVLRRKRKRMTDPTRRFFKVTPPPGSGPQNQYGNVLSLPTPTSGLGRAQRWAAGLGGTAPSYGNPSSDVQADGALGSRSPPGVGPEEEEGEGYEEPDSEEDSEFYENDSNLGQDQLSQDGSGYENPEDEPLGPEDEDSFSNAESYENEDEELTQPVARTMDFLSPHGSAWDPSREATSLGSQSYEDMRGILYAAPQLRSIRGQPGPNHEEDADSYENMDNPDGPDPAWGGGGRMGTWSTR

Row | Binder | Proportion of chimeric antibody positive cells to B cells (%) at 1 nM [1] | Proportion of chimeric antibody positive cells to B cells (%) at 10 nM [1] | Proportion of chimeric antibody positive cells to B cells (%) at 100 nM [1] | Maximum mean fluorescence intensity [2] | EC50 (human CD19 on Raji cells) | Maximum mean fluorescence intensity (human CD19 on Raji cells) | EC50 [3] | Maximum mean fluorescence intensity [3] | EC50 [2]
1 | F3.109.1 (antibody, human IgG1, V domains shown, human-murine chimeric antibody, human IgG1) VH: EVQLQQSGAELVRPGSSVKMSCKTSGYTFTSYGINWVKQRPGQGLEWIGYIYIGNDYTEFNEKFKGKATLTSDTSSSTAYMQLSSLTSEDSAIYFCARFYSNSDPMDYWGHGTSVTVSS VL: not shown | 1% | 1% | 1% | 148 | 0.44 nM | 29900 | 0.57 nM | 3980 | 
2 | F4.18.13 (antibody, human IgG1, V domains shown, human-murine chimeric antibody, human IgG1) VH: QVQLQQSGPELVKPGASVKISCKASGYAFSSFWMNWVKQRPGEGLEWIGRIYPGDGDTNYNGKFKGKATLTADDSSSTAYMQLSSLTSVDSAVYFCAREVIAAVVTTDFDYWGQGTTLTVSS VL: DIQMTQTTSSLSASLGDRVTISCRTSQDISNYLNWYLQKPDGTVKLLIYYTSGLHSGVPSRFSGSGSGTDYSLTISNLEPEDIATYFCQQGKTLPYTFGGGTKLEIK | 2% | 8% | 21% | 19700 | 1.31 nM | 35200 | 0.6 nM | 51600 | 26.2 nM
3 | F3.114.12 (antibody, human IgG1, V domains shown, human-murine chimeric antibody, human IgG1) VH: DVQLQESGPGLVKPSQSLSLTCSVTGYSITSGYDWNWIRQFPGNKLEWMGYISYDGKNNYNPSLRNRISITRDTSKNQFFLKLNSVTTEDTATYYCARRDLRGYFDVWGTGTTVTVSS VL: DIVLTQSPATLSVTPGDRVSLSCRASQSISNYLHWYQQKSHESPRLLIKYASLSISGIPSRFSGSGSGTDFTLSINSVETEDFGVYFCQQSNSWPLTFGAGTKLELK | 40% | 90% | 99% | 210000 | 3.34 nM | 28700 | 2.32 nM | 50400 | 1.56 nM
4 | F4.21.2 (antibody, human IgG1, V domains shown, human-murine chimeric antibody, human IgG1) VH: QVQLKQSGPGLVQPSQSLSITCTVSGFSLSTYGVHWVRQSPGRGLEWLGVIWIGGTTDYNAAFISRLTISKDNSRGQVFFKMDSLQANDTAIYYCARKGYYKYDGGYYYAMDYWGQGTSVTVSS VL: DIQMTQSSSYLSVSLGGRVTITCKASDHINNWLAWYQQKPGNAPWLLISGATSLETGVPSRFSGSGSGKDYTLSISSLQTEDVATYYCQQYWSTPLTFGAGTKLELK | 2% | 3% | 18% | 39200 | 2.69 nM | 30800 | 1.02 nM | 52600 | 9.1 nM
5 | F4.4.6 (antibody, human IgG1, V domains shown, human-murine chimeric antibody, human IgG1) VH: QVQLQQSGAELARPGASVKLSCKASGYTFTSYWMQWVKQRPGQGLEWIGAIYPGDGDSRYTQKFKGKATLTADKSSSTAYMQLSSLASEDSAVYYCARSTTTVLGNNFEYWGQGTTLTVSS VL: QIVLTQSPAIMSALPGEKVTMTCSASSSVSSMHWYQQKSGTSPKRWIYDTSKLASGVPARFSGSGSGTSYSLTISSMEAEDAATYYCQQWSSNPWTFGGGTKLEIK | 2% | 2% | 3% | 662 | 0.56 nM | 26000 | 0.08 nM | 14800 | 
6 | F3.113.16 (antibody, human IgG1, V domains shown, human-murine chimeric antibody, human IgG1) VH: QVQLQQPGAELVKPGASVKLSCKASGYTFTNYWMQWVKQRPGQGLEWIGEIDPSDSYINYNQKFKGKATLTADTSSSTAYMQLSSLTYEDSAVYYCARPVTVPWYFDVWGTGTTVTVSS VL: EIVLTQSPTTMAASPGEKITITCSATSSISSNYLHWYQQKPGFSPKLLIYRTSNLASGVPARFSGSGSGTSYSLTIGTMEAEDVATYYCQQGSAIPRIFTFGSGTKLEIK | 1% | 1% | 6% | 176 | 0.96 nM | 28800 | 0.39 nM | 34100 | 
7 | F3.121.4 (antibody, human IgG1, V domains shown, human-murine chimeric antibody, human IgG1) VH: QVQLQQPGAELVVPGTSVKLSCKASGYTFTNYWMHWVKQRPGQGLEWIGEIDPSDNYANYNQEFQGKATLTVDKSSSTAYMQLSSLTSDDSAVYYCARHDGYFGALDYWGQGTSVTVSS VL: EIVLTQSPTTMAASPGEKITITCSASSSISSNYLHWYQQKPGFSPKFLIYRTSNLASGVPARFSGSGSGTSYSLTIGTMEAEDVATYYCQQASSIPRMFTFGSGTKLEIK | 1% | 2% | 2% | 80 | 0.31 nM | 32900 | 0.3 nM | 53700 | 
8 | F3.133.14 (antibody, human IgG1, V domains shown, human-murine chimeric antibody, human IgG1) VH: QVQLQQPGAELVMPGASVKLSCKASGYTFTNYWMHWVKQRPGQGLEWIGEIDPSDYYANYNQKFKGKATLTVDKSSSTAYMQLSSLTSEDSAVYYCARSHYYANSYNYWGQGTTLTVSS VL: EIELTQSPTTMAASPGEKITITCSASSSISSDYLHWYQQKPGFSPKLLIYRTSNLASGLPARFSGSGSGTSYSLTIGTMEAEDVATYYCQQGSSVPRMLTFGAGTKLELK | 1% | 1% | 7% | 138000 | 0.93 nM | 34400 | 0.82 nM | 63100 | 2.47 nM
9 | F3.126.15 (antibody, human IgG1, V domains shown, human-murine chimeric antibody, human IgG1) VH: QVQLQQPGAELVMPGASVKLSCKASGYTFTSYWMHWVKQRPGQGLEWIGEIDPSDSYTTYNQNFKGKATLTVDISTSTAYIQLSNLTSEDSAVYYCARLTGNYIHYWGQGTTLTVSS VL: DIVMTQSHKFMSTSVGDRVSITCKASQDVSPAVAWYQQRPGQCPKLLIFSSSYRSTGVPDRFTGSGSGTDFTFTISSVQAEDLAVYYCQQHYSLPLTFGAGTKLELK | 16% | 27% | 49% | 175000 | 1.18 nM | 30300 | 2.47 nM | 56700 | 5.57 nM
